Test results reported in patent US20120251453A1 (SANFORD BURNHAM MEDICAL RESEARCH INSTITUTE, published 2012).
No end group written: not given here. Alexa Fluor 488 C5‑maleimide = fluorescent dye linked to the Cys thiol through maleimide

How the values were obtained:
[1] = target: T1, annexin 1 (Anxa1) expressed on mouse endothelial cells (F-2 cells; tumor vasculature in mice) (mouse, UniProt P10107 2-346); experiment: intravital fluorescence of LLC tumors in a dorsal skinfold chamber after intravenous injection; signal intensity over time
T1 construct: whole, on cells; Endogenous protein on cells; also called Anxa1 expressed on the endothelial cell surface
T1 sequence (looked up): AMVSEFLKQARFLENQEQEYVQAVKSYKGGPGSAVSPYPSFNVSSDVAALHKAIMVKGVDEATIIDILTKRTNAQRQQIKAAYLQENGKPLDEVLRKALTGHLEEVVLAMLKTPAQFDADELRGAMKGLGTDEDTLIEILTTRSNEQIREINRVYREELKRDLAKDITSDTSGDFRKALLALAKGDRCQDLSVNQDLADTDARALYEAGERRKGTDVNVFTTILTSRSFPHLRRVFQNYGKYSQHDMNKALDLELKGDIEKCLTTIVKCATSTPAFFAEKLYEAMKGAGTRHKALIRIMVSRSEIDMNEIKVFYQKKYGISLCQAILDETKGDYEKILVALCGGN
Experimental: The line with the lowest signal at 10 minutes represents RQ7-A488. Intensity of fluorescence was determined by Image J program. Error bars represent SD (n=3). Asterisks show statistical significance or p<0.0001, t test. (C) Fluorescence micrographs of tumor sections 20 min after injection with IF7-A488 and RQ7-A488. From left: IF7-A488, DAPI, merged, and bright field. IF7-A488 signals (upper row) were detected on endothelial cells of tumor vasculature (Scale bar=50 μm), while no RQ7-A488 signal was detected (lower row). Experiments were repeated 3 times, and representative results are shown. Arrows indicate fluorescence. (D) Fluorescence remained in circulation in mice with or without subcutaneous B16 tumors. IF7-A488 was injected intravenously through the tail vein, and fluorescence remaining in circulation was measured. […]
A Lewis lung carcinoma (LLC) tumor was produced in a donor nude mouse by subcutaneous injection, and small piece of tumor (less than 1 mm³) was transplanted to a dorsal skinfold chamber in a recipient nude mouse (8-10 weeks female Balb/c nude) as described (Lehr et al., Am J Pathol 1993; 143:1055-62; Oh et al., Nat Biotechnol 2007; 25:327-37). […] Signal intensity in the tumor from 0 min to 40 min was measured by Image J (NIH, Maryland). After 10 min, irradiation of specimens by a UV lamp was limited only to times when photos were taken to avoid fluorescence bleaching. […]

[2] = target: recombinant Anxa1-His6 protein; experiment: isothermal titration calorimetry, peptide injected into Anxa1-His protein, 23° C.; average over two Anxa1-His preparations
[3] = target: T1, annexin 1 (Anxa1) expressed on mouse …; experiment: in vivo phage targeting in B16 tumor-bearing mice pre-injected with control rabbit IgG or anti-Anxa1 antibody; colonies recovered from tissue homogenates
Excerpt: FIGS. 1A-1H show the essential role of annexin 1 (Anxa1) in tumor growth and identification of a peptide sequence with tumor vasculature targeting activity in vivo. A and B. Growth of B16 tumors subcutaneously injected into Anxa1(+/−) and Anxa1(−/−) mutant mice. C. Histology of B16 tumors produced in Anxa1(+/−) and Anxa1(−/−) mice. Each scale bar represents 2.00 mm. D. Immunohistochemistry of B16 tumors for CD31 showing endothelial cells and vasculature. Each scale bar represents 200 μm. E. In vivo phage targeting in B16 tumor-bearing mice. Numbers of transformed colonies recovered from the tumor or lung were determined. […] F. In vivo tumor and organ targeting activity of IFLLWQR (SEQ ID NO:2) displaying phage. Phage was injected into B16 tumor bearing mice pre-injected with anti-Anxa1 antibody or with control rabbit IgG. G. In vitro plate assay for binding of IF7-A488 (upper line) and control RQ7-A488C (lower line) to recombinant […] protein produced by bacteria. H. Effect of IF7 (upper line) and control RQ7 (lower line) on binding of FITC-labeled polyacrylamide-LeA oligosaccharide to Anxa1-His₆ protein.
Mouse melanoma B16F1 cells (2×10⁵ cells/100 μl PBS) were injected subcutaneously into the dorsal flank of C57BL/6 female mice (8-10 weeks old). […] Colonies appearing on an agar plate after culturing at 37° C. for 20 hours were counted.

[4] = target: T1, annexin 1 (Anxa1) expressed on mouse …; experiment: fluorescence microscopy of mouse endothelial F-2 cells cultured in vitro
Experimental: F-2 cells cultured on a filter of trans well insert was added with IF7C(RR)-conjugated FITC-poly-L-lysine to allow the reagent being bound to apical cell surface of F-2 cells. After washing the monolayer with medium, insert was placed in wells containing medium at 37° C. or at 4° C. Fluorescence moved to the lower chamber of insert was measured. C. Targeting and penetration of intravenously injected IF7C(RR)-conjugated FITC-poly-L-lysine in the B16 tumor in vivo in the mouse. Tissue section was immunostained for endothelial cell marker CD31.
Since IF7-SN38 is highly hydrophobic, there was a concern regarding a possibility that IF7-SN38 becomes insoluble after intravenous injection. Such may reduce the activity of IF7-SN38 in vivo. To increase the solubility of IF7-SN38 in aqueous environment, two arginine residues were added to IF7 after the cysteine residue. Thus IFLLWQR-C-RR (SEQ ID NO:17) or IF7C(RR) was synthesized. When IF7C(RR) was conjugated to FITC-poly-L-lysine, IF7C(RR)-conjugated FITC-poly-L-lysine bound to the surface of Anxa1-expressing mouse endothelial F-2 cells (FIG. 12A). […] When IF7C(RR)-conjugated FITC-poly-L-lysine was added to F-2 cells grown on a filter of the insert for trans well chamber, washed and then incubated in a medium at 37° C. or at 4° C., fluorescence migrated to the lower chamber from cells incubated at 37° C. but not at 4° C. […]

[5] = target: T1, annexin 1 (Anxa1) expressed on mouse …; experiment: intravital fluorescence of LLC tumors in a dorsal skinfold chamber after intravenous injection; signal intensity over time, with or without pre-injected rabbit IgG or anti-Anxa1 antibody
Experimental: (A) Lewis lung carcinoma (LLC) tumors were allowed to vascularize for 3 days in dorsal skinfold chamber window in nude mice. Mice were injected with 100 μl of 50 μM IF7-A488 (row a) or RQ7-A488 (row b) in 5% glucose in water. IF7-A488 was also injected to tumor-bearing mice pre-injected with rabbit IgG (row c) or with rabbit anti-Anxa1 antibody (row d). Fluorescence signals were monitored under a fluorescence microscope up to 40 min post-injection. From left: bright field before injection, and fluorescence at 0, 5, 20 min after injection. Far right, the boundary of tumor and stroma at 20 min (Scale bar=500 μm). (B) Quantitative analysis of fluorescence during the course of the analysis shown in A. The line with the highest signal at 10 minutes represents IF&-A488. The line with the second highest signal at 10 minutes represents the control IgG. […] Intensity of fluorescence was determined by Image J program. […] (C) Fluorescence micrographs of tumor sections 20 min after injection with IF7-A488 and RQ7-A488. […] IF7-A488 signals (upper row) were detected on endothelial cells of tumor vasculature (Scale bar=50 μm), while no RQ7-A488 signal was detected (lower row). […] Arrows indicate fluorescence. (D) Fluorescence remained in circulation in mice with or without subcutaneous B16 tumors. IF7-A488 was injected intravenously through the tail vein, and fluorescence remaining in circulation was measured. […]

B1: RQ7-A488 (Alexa 488 conjugated with RQWLLFI or reverse IF7) (peptide)
peptide: RQWLLFI
modifications: also: Alexa 488 conjugated, site of attachment not given here
notes: also called RQ7-A488C; control RQ7-A488
binding result [1]: no binding

B2: IF7K3C peptide (…) (peptide)
peptide: IFLLWQRKKKC
Kd [2]: 11 µM

B3: IFLLWQR (SEQ ID NO:2) displaying phage (peptide, not shown: large carriers)
peptide: IFLLWQR
notes: also called IF7 phage; clone #2
binding result [3]: binds

B4: IF7C(RR)-conjugated FITC-poly-L-lysine (peptide, not shown: large carriers)
peptide: IFLLWQRCRR
modifications: also: conjugated to FITC-poly-L-lysine, site and chemistry not given here
notes: Polymer conjugate; also called IF7C(RR)-conjugated FITC-polylysine; IF7C(RR)-conjugated FITC-poly-lysine
binding result [4]: binds

B5: IF7-A488 (chemically synthesized IF7 conjugated with fluorescent Alexa 488) (peptide)
peptide: IFLLWQRC(Alexa Fluor 488 C5‑maleimide)
notes: Synthetic peptide (GenScript)
binding result [5]: binds
